Paper PMC3045587

T1: hTra2-β RRM (Homo sapiens, UniProt P62995 110-201)
T1 sequence: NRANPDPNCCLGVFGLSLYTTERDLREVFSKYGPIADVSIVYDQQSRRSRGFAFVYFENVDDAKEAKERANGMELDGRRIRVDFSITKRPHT


How the values were obtained:
[1] = biological target: T1, hTra2-β RRM; assay: ITC
[2] = biological target: T1, hTra2-β RRM; assay: ITC; remark: listed apart in the source
[3] = biological target: T1, hTra2-β RRM; assay: NMR titration

Row | Binder | Kd [1] [µM] | Kd [2] [µM] | Kd [3] [µM]
1 | GAAGAA (ssRNA) [(GAA)2, GAAGAA] | 1.5 |  | 
2 | UCAAU (ssRNA) |  | 47.8 | ~40
3 | GACUUCAACAAGUC (structured_RNA) [14-mer CAA stem-loop RNA] | 3.48 |  | 
